Laboratory results as given in publication PMC2680336.

Biological target: Ect2 (UniProt Q9H8V3)
Experiment: anti-myc IP, anti-FLAG blot
Settings: reference: wild-type FLAG-HsCYK-4; sites S157

binding against the reference: weaker
Substance: HsCYK-4 (MgcRacGAP) (from UniProt Q9H0H5) S157A
